According to the NTF2 design screens of Basanta et al. (2020):

Assay: protease stability score; higher = more stable; yeast display proteolysis, trypsin and chymotrypsin;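 also: relative to predicted unfolded state with 0 unfolded-like and 1 meaning tenfold more protease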

In order of falling protease stability score:
1. DEEKESAERWLHIFLHSMDTGDEDKIRKLLDPNVLNDVGDKVLIGRELAFKWFHHLRFRKVHLRDFRIINGRIEVDIDVRGEINGKEDHFRLEVDLRKINGRWVLHEIRID  2.81
2. SEDERLVRHALNELLHHIETGDEERLIKLIDPNYRISINGQELHGWEEYVRLIREWRIRRFRVKDVDVQGDKANLDVRTHGDIDGQHHDFTIKIIATKINGRWINEEIIVE  2.4
3. DEKEKIVHEMFKLWVDLLLTGDEEILRRMLDPNTRLDFNGVDVIGMERIADHLRHWRFHDIRIEHMRVYNGRVEVETRLDGYWDGRRIRTTSHILLVVVGDKIKEIHIKID  2.38
4. SEEEESSERATKILRELLKTGNFRLLLELMDPNARLHTHINGVNIHDHGRNLARWLVERIKNAVIKINDEEVRIFNGRVEVDIDGELLINGRNFRVHEHWIFRKIDGKWFFEEVEIRVE  2.16
5. DETTEDDRRRYEEFLMAEITGDFHLVEKLHDPDVRFVLVIGDKIHIHHGREDVRKWIEHDFRKFKNARIELHDVKAYDGRVEIHGRVQVDGVRFDVHITIIIINGRVKEQRLNIR  2.12
6. NEDERLIKEFWRLLQEALKTGNWEMIAELIDPHVRIDIGDKQIHGREEFIKLVDHIRFDDVKTELKTVHVFDGRVEVRGHLTVHKTFNGQKIDERTDVNLDIEKINGVWYMTYVRIE  2.06
7. HEHEEELREFLRLWIEDLVTGNEDSLREFADPNMRIEQGDKEHHGREQFLEIMHRLVREARLEIILRRMNIFDGKANIDGELMIRIGDKHIRHHLRIIILKIDGVWLLKSIHVR  1.94
8. DEEKEEHEKMIERWLRALETGDEHLLRELIDPNVRLDINGRRTHGREDVLRLFVDLGIDHHDIHDVKIIDGRIDMDTRINVNGREIKIRVIARKFDGRWIVESFRVE  1.89
9. DERERDARKAVKDFIESIRTGDEDEIEKLLDPHVRVDAPNHERHGREEVVEELREMRIEIRDVRFRHIHVQGNKIEVHVRVHGSLMINGREYRIDTTMIIIMEKIDGRWILTHIEEK  1.62
10. DEDEEQARRLAELIRHLLITGDEYVNRKMADPRVQFILHQGDKNYLHHGRDEVVRRLRELWEEWGFDQIHVNLDDVKIVNGRVIIHTRLQVGDKHMELRFIIEKIDGKWLVTHEQIHLH  1.62
11. DELTEEVRKFLERLWRATHTGNEKEFWELVDPNVRDDINGRILHGRETVIRIITELGFKVRHNEFRDERVVGEYATVHGNFNVDINGKEHEVDVEIIVEKVNGVWTLKYRHFR  1.54
12. DEDSKHVEHLMRLLIRLLITGDEDTLLNLIDPHARIDINGKEVHGREWAEKFIRRFERDLGVKHNHIEHIELQGDKAHVDFSLRIGDKMIQVHIDIWIVDGKLQSIRIKIK  1.54
13. SEEEQSARKVIEDLIRDLVTGDEKSLRRLMDPHVRFDIGDKELIGREEVLEFWRHIRIHDIKLEDVRLIDGRATVEGKLNGEINGVHHRLDEHIFIYKVDGRWVVHEIRII  1.53
14. IEQKEAWDEVYRIFVEAVRTGDWKSFERLLDPHTRIHFENREFHGREALEHDREKYKNMKLEHIEIKDQRVQGDKVIQFSHVVGNIDGRRLRFDIEIQFSKVDGVWTIELVIVR  1.52
15. DEEKKLYHHIWDRLRRALETGNEEELHKLADPDVRVIIGDKHFHGRDELYRLTEEIRVVITEIRLHDKDHQGDKVILDVEERVNVQVDGKETEYRFRSTLYFVKINGRWTLRRIELK  1.52
16. DDREKLWHRLVELEKELWLTGDFEDFHSLADPNVQLIVHFDGQEVHYHGRESVTMALKILREQLGADHFEPKSVHYQGNKMQTSMILFVNGREFEFRLTLFVIDGRLKSHHIEWK  1.48
17. EEMERDIKHAVEVMIRFWETGDERLLTELADPDTKSKIDGRTFHGREDIHKLFHSVIEKVKNIRIEFKRISVQGDKAKIDGTNNFNGREIKTDITLWKFDGRWILESIEIG  1.43
18. DEDEEMSERLSRIIVKALRTGNEHVLRRLVDPDVLSSIDGRKHHGWEDWHEFLKRLGHENVDVQLEHLRFQGNKIELDMILRVGDKTHTQHIHILKVDGRWTMHEVRIK  1.42
19. SELDKVAEEHMEHFFHLYRTGDEDMTHELLDPHVRVSINGVETVGRELATKEVIDWVRKVKNVKTHIHHIEKINGKVIVDTRIHINGVDFRLVIWADKVNGRWHIREMEIR  1.36
20. DEKDRISKKIVELWMRALITGDEEEMDRMADPDVRIKYGDKVSHGMEEARETWEHIRWRDIRLDHVDSYNGRIRIDGTVHIEINGREDTTRVEIILHVIDGRIKEIRVIIR  1.3
21. SEEERDLKEEADRFLDHVRTGDEDTLRDLIDPNVKLRVDQGDKDIELHGREEVIKFLVHMRIHHVKLNNFRIQGNKIIHDIRVDGTINGVRRDRREHLILHIVDGKIKIVEIRVE  1.28
22. NEEEEHIFELWELFLKASHTGDEDSLKEFADPNTRQIVDGQEIHGREKFTEHLSWRAKELRLESVHIRRLHIIDGRIHVDGLIRGRINGREIEIETEVISIKVNGKWILKEMNFK  1.28
23. SDEEDHWHELLERIVRLLMTGDEKTLNKLFDPNMRIIIIIGDKEIRLHGRHKFEKWVRDFLNKFKNVKIEIDDHRAVNGVVQIDGTLFIDGREHHVENNFFIVNGRITEIQIHIK  1.28
24. SEEEFFTEMALRIYIELFETGDEHLIERLADPNVIIDFNGREFIGREYFSRIFHFLRRHWRMRDVTLKDWRVFDGRLHMEVQLYGKVNGQETQRDTHLVSTKINGRWRIHSDKWD  1.25
25. DREEEELKRIMHLFINFVETGDWELILKLMDPNVKMQIDFNGKIFRNHGRDALEYTIRLMGIDHIEIHHQDVIDGKLHIDVTVHIDGQDLRVHIHVIVIDGRIREVRHRTH  1.23
26. DEKERKLLEIARLLIESFLTGDWKTFHEMLDPHVRFEVGDKEAHGWEEALRVWDHLKEEMRITDLDIHHYTVQGDKVHIDSRLHGEIDGKRVTFRTRIVVIVVNGRVKQVSYKIT  1.23
27. SEEHHSEKLAIHLSKEISHTGDETWIKKMLDPNVKIVIGDKEFHGMENFVTHWHRLVKELGVDRVRHRVEDSDVQGDKLTMHVEIEVNGRKVESHIIAHKFNGRWLVKEIIFH  1.23
28. KEEEDIVRHVVEKFIKNLLTGDFHSLMHMADPNVLVNFNGKENIGRELAVKTIERWWKELGVKHFEHFDLHDITIFDGKASLDTRVHGEINGKVHDFKTRIIIQKINGRWTVHSVEFE  1.22
29. HQDDDELKHFLELFIEQHETGDEHRLRKMADPRTRVEINGQEIHGMDQLVRHWLEFRKRMGVDHTHVILEHFHFQGDKVSARLRLIFIVGDKTFETDMNVIVVKVDGKWLIHEVSTR  1.22
30. SEEEKLLTDWLRELEEVTRTGDEESIMRMVDPNDKMDVGDKHRHGMHAQEVWIEVFRRQFGIDNFEVRLIINHRRIVDGQAHVDGELQLIYNGRTTSLRIELIIDKFDGRWLISSIRYN  1.19
31. DEDEQELRDALERWIRAMYTGDEKTLRDLIDPNVLIDINGKIIHGRHKLSQHLREIRIHHFEMHIEDYRFQGDKVHMDVREKRHWVIGDKHIDESRSVTLIIVKFDGRWLMHRVIVH  1.19
32. NEDEDKMKEWIETLHKSLETGDEKTLSKLFDPRVQYDIGDKKYHGWRHYLELILRIDHERREIHHVEVVNGRVEIDVRVHIHINGQDYEKKTILHVEKIDGKWLNKKVQIV  1.16
33. DELDEILVRIAEMVVEIWETGDWEWLEHLLDPHVRLQIGDKEVHGREAIREMIHELLNKLPNIRSHIRLREVRYYNGKAHFNTELRLHINGRDLRSRVRYEILVVDGRVRSMHVEIR  1.09
34. DHEEKIWEEVLKELVHQFLTGDWKTRTQMADPEVRVESRVGDKFVRMHGREYLRMLMEFLHEQIKNATVTLHSFRVVDGRNEIKLRAEIGDKTHEIDMHYFVVDGRIKSLHVRTWEL  1.05
35. DELELHAEEMYEIWIKLEETGDWEIMLELADPNTKVTWNGVRIHGMEHYLERHHREHRKIKNITTHFILRDIDVIGNKSHVDGEVEIRVNGKTIILRVHFDNVVIDGRFKSHRVIVK  1.03
36. TEEEKELRHLYNRWLKDLQTGDEDSFRHLADPNVRLIVGDKDHHGWETSAQWMRELRERVDHLEIIVDSSHVINGRIESDTTIRLRVGDKTIEYRAEFEIDIVNGKMKRIVVREH  0.998
37. SEEEHFAKELHKLFLEWWKTGDEEHLLEFADPDARSEIGDKRHHGREEVSRELLEFRRRIPGVQIRHQHVSVHLIDGKLTTHLHFRVNFNGVEFHETIIYYNDKYNGKWHLKSIIVTIE  0.954
38. SDKDHLFKWAVRHLLEFTQTGNWEHMEHYLDPNVRLNFHIDGVSIERHGMEFLKKLLRDLSEDAGLDNINVQLHSFEIQGEKVNIHLKETFNGRHHETHNVVFKFDGRWKLTKSEVFFL  0.913
39. DEDEREVAEVLRRWLHDFLTGDEKEFHRLVDPHVKYREHYNGQQIHVHGRENLFEFIRRRNEEMRMEILIRDWKVQGDYAESEGEVIFDINGRIHSVDLRVEIIVVNGRVSKVHISVN  0.847
40. SEDEKFARHVVKLWEDNYKTGNFEELLHMMDPHVKIKVNGRELHGWEELEKILTEFHERFRNQKLDIKLRDLKIQGNYVHADMELTIHYNGQEHREQVHLVVRKVNGRWEIEKITFD  0.813
41. DEEEKIVEDAIRVWRRVLMTGDEEASRDLMDPNYKLVVGDKEYHGREEIVTYFKILVEHIRIDDFDVRHIRVQGDKIDINSEINGTIDGRHKRLEVTIHAHKFDGRWHLTEIIIH  0.811
42. SEDEEDFERAIKLYETLNATGNEEEYSKMVDPHVKMHFNGVDFHGREKMVEVVHKLGVKHLETKSIRIIGDFLRSRFENDVDGRKIEQEVQMLKINGRWLIKYISFH  0.706
43. TEDKEKDDEVAHLFLNAVRTGDEELFQDLVDPETRLNVNGQEIHGRENVFRHMRETWDKMGVDHVELKDRRHINGVLILHFEIRVGDKTIHVEYIIEKIDGRWILTKVHIR  0.569
44. SELIKVSRHAMEILVHSWLTGDWERSEELVDPHARTQYGDKHVHGMELFEEIFKEELDRVKGMRLEIIIRRVDLQGNKAEVDGEFRNHVNGVDVRRRMHVELVVVNGVVESTSIRIQ  0.453
45. DEEEKEMRELFHHIIRLIDTGDFDTLKQLADPNTQLHIGDKHSHGREEVVRMNRHWRYHDSKIRDSHVVNGVIHVDAESNLKFDGVRTVTHVRLILYVVDGRLKSLEIRIE  0.44
46. SEREELVRYAIELMEEVMRTGDERLIESMADPNTRVVVNGVELHGRNHLLRVWSEWRTRDMREREVHVYDGRIEMHGTSDITIGDKHVITDTRHIAEKVDGRWILRSVEFR  0.405
47. SEEEEMTRLALEIFHRVYKTGDEDKYRDLADPHVRLVVGDKTFHGREHYLKFFRHIRIHHSHLDDFEIQGDKAILDTTIDVNINGKRHWIKTHVISVKVNGQWRLHSEELS  0.178
48. SEEEERLRTIAEVLLHLLLTGDEEHLERLMDPHARYEQGDKHAIGREEVSHLFRRLLEHMRTREIHLHRWHSVNGVIYLDTRVIMEVNGRRIDTDTKVVVVVVDGKVRSMRNQFN  0.113
49. SEDERLALKMAEVIMHHLSTGDERILESFFDPNVQFIYGDKTNHGMEETLKFWEHIRIEVKSFTWKHITHVDGRLEMHTRSRELFIYGEFKEDRETRVHIIIDKVDGKWNHHSVRFR  0.06
50. DEESEDAKRVLDEWLHMLDTGNEERLHELADPNMRFDVNGKEIHGMEIWQKEMKRSLTHHGAEMHHRIRTIEVQGNKILVDGELIINFNGRTYLHKIHIIFQKFDGRWHVESLTIK  -0.052
